The values that follow come from patent US20030068675, “Position dependent recognition of GNN nucleotide triplets by zinc fingers” (published 2003).

Common to all, as to test: EMSA
What all share (conditions): tags: MBP fusion

For one data set, the target named is T1, ZFP SBS#1009 (synthetic).
T1 chain: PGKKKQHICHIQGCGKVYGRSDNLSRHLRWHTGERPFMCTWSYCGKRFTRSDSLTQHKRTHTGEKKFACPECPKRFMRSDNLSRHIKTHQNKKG
The gist of the method: (§1)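 Purified ZFP was titrated against labeled double-stranded target (1 nM or lower, at least 10-fold below expected Kd) carrying the natural binding site with flanks. Binding buffer was 10 mM Tris pH 7.5, 100 mM KCl, 1 mM MgCl2, 0.1 mM ZnCl2, 5 mM DTT, 10% glycerol, 0.02% BSA, with equilibration for at least 45 min. Bound and free target were separated on a 10% polyacrylamide gel.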

Another data set has as its target T2, ZFP SBS#1008 (synthetic).
T2 chain: T1 chain with S79L, D80H, S83A
The gist of the method: as §1

For the next data set, the target named is ZFP SBS#1014 (synthetic). The gist of the method: as §1
A further data set has as its target ZFP SBS#1012 (synthetic). The method in brief:
as §1

The next data set has as its target ZFP SBS#1018 (synthetic). The method in brief: as §1
The target of another data set is ZFP SBS#1006 (synthetic). The gist of the method:
as §1

A further data set has as its target ZFP SBS#368 (synthetic). The gist of the method: as §1
The next data set has as its target ZFP SBS#438 (synthetic). The gist of the method: as §1
The target in another data set is T3, ZFP SBS#1017 (synthetic).
T3 chain: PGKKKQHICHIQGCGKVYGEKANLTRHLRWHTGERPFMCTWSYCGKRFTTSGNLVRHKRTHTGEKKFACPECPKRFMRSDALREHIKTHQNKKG
The gist of the method:
as §1

For the next data set, the target named is T4, ZFP SBS#1011 (synthetic).
T4 chain: T1 chain with D22A, N23D, S25T, T55A, Q56R, N81S, S83T, R84K
The gist of the method:
as §1

The target in a further data set is T5, ZFP SBS#981 (synthetic, UniProt P08047).
T5 chain: T1 chain with N23D, S25T, S53E, T55Q, Q56R, S83R, R84E
The gist of the method:
as §1

The next data set addresses T6, ZFP SBS#985 (synthetic).
T6 chain: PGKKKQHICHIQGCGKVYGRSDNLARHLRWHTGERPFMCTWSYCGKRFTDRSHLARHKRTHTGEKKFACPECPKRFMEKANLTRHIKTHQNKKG
The method in brief: as §1

Another data set has as its target T7, ZFP SBS#984 (synthetic).
T7 chain: T6 chain with E78D, K79R, A80S
The gist of the method: as §1

In the next data set the target is ZFP SBS#994 (synthetic). The method in brief:
as §1

In a further data set the target is ZFP SBS#940 (synthetic). The gist of the method:
as §1

The next data set deals with T8, ZFP SBS#939 (synthetic).
T8 chain: T6 chain with N23H, A25T, R26T, E78R, K79S, A80D, N81H, T83S, R84K
The gist of the method:
as §1

Another data set addresses ZFP SBS#1019 (synthetic). The gist of the method: as §1
The target of the next data set is T9, ZFP SBS#989 (synthetic).
T9 chain: T1 chain with N23H, S25A, S53N, T55A, Q56R, R78M, D80H, N81H
The gist of the method: as §1

In a further data set the target is T10, ZFP SBS#990 (synthetic, UniProt P08047).
T10 chain: T1 chain with R20D, S21R, D22S, N23H, S25T, T55A, Q56R, S83T, R84Q
The method in brief: as §1

For another data set, the target named is ZFP SBS#991 (synthetic). The method in brief:
as §1

In another data set the target is ZFP SBS#1001 (synthetic). The gist of the method: as §1
A further data set deals with ZFP SBS#1007 (synthetic). The gist of the method: as §1
Another data set has as its target ZFP SBS#1010 (synthetic). The method in brief: as §1
A further data set addresses ZFP SBS#1013 (synthetic). The gist of the method: as §1
For a further data set, the target named is T11, ZFP SBS#983 (synthetic).
T11 chain: T6 chain with N23H, A25T, R26K, E78R, K79S, A80D, N81E, T83R, R84E
The method in brief: as §1

A further data set has as its target T12, ZFP SBS#982 (synthetic).
T12 chain: T6 chain with N23H, A25T, R26T, E78R, K79S, A80D, N81E, T83R, R84E
The gist of the method:
as §1

For a further data set, the target named is ZFP SBS#995 (synthetic, UniProt P08047). The method in brief: as §1
Another data set has as its target T13, ZFP SBS#1024 (synthetic, UniProt P08047).
T13 chain: T1 chain with R20Q, D22A, S25A, S53N, T55A, Q56R, N81H
The gist of the method:
as §1

Another data set deals with T14, ZFP SBS#1022 (synthetic).
T14 chain: T1 chain with N23A, S25A, S53N, T55A, Q56R, S83A
The gist of the method:
as §1

The target of the next data set is ZFP SBS#1025 (synthetic). The gist of the method: as §1
A further data set concerns the target ZFP SBS#1015 (synthetic). The method in brief:
as §1

A further data set addresses T15, ZFP SBS#1002 (synthetic).
T15 chain: T1 chain with S25V, S53N, T55A, Q56R, N81E, L82R, S83K
The gist of the method:
as §1

For a further data set, the target named is ZFP SBS#997 (synthetic). The method in brief:
as §1

Another data set addresses ZFP SBS#999 (synthetic). The gist of the method: as §1
A further data set concerns the target T16, ZFP SBS#1016 (synthetic).
T16 chain: T1 chain with R20D, S21R, D22S, N23A, S25A, Q56K, S83R, R84E
The gist of the method: as §1

A further data set concerns the target T17, ZFP SBS#1000 (synthetic).
T17 chain: T1 chain with R20D, S21R, D22S, N23A, S25A, S53A, Q56R, S83R, R84E
The gist of the method: as §1

Another data set has as its target T18, ZFP SBS#996 (synthetic).
T18 chain: T1 chain with R20D, S21R, D22S, N23A, S25A, S53A, Q56S, S83R, R84E
The method in brief:
as §1

Numbering of substitutions follows the chain as printed.

ZFP SBS#1010 (synthetic), sequence (chain, as listed by the source): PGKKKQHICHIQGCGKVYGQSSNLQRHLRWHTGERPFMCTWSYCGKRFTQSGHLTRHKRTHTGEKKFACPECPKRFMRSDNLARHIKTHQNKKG
ZFP SBS#1018 (synthetic), sequence (chain, as listed by the source): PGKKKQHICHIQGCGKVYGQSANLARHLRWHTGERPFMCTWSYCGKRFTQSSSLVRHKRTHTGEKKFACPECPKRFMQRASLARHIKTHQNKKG
ZFP SBS#1001 (synthetic), sequence (chain, as listed by the source): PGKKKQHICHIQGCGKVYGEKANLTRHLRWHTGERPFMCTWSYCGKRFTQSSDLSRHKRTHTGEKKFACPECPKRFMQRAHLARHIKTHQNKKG
ZFP SBS#1019 (synthetic), sequence (chain, as listed by the source): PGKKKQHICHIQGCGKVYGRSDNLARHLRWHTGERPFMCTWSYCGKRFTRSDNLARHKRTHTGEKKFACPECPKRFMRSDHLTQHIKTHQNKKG
ZFP SBS#1006 (synthetic), sequence (chain, as listed by the source): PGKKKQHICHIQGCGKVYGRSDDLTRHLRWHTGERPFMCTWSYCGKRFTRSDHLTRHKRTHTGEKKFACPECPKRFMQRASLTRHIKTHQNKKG
ZFP SBS#1012 (synthetic), sequence (chain, as listed by the source): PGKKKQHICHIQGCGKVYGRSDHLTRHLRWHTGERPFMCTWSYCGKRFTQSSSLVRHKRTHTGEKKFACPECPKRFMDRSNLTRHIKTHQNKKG
ZFP SBS#368 (synthetic), sequence (chain, as listed by the source): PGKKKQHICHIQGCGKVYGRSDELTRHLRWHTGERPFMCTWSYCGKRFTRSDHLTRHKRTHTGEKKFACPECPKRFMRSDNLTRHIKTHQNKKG
ZFP SBS#999 (synthetic), sequence (chain, as listed by the source): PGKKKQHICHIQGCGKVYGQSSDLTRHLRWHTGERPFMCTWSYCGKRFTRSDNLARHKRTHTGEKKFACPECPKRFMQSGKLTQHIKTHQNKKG
ZFP SBS#997 (synthetic), sequence (chain, as listed by the source): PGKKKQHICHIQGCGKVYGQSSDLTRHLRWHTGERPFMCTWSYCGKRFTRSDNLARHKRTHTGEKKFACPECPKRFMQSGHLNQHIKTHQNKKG
ZFP SBS#991 (synthetic), sequence (chain, as listed by the source): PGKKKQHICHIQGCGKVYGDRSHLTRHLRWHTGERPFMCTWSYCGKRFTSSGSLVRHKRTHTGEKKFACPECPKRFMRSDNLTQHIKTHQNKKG
ZFP SBS#1025 (synthetic), sequence (chain, as listed by the source): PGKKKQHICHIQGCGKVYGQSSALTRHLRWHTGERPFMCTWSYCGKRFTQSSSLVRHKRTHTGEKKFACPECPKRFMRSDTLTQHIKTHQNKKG
ZFP SBS#940 (synthetic), sequence (chain, as listed by the source): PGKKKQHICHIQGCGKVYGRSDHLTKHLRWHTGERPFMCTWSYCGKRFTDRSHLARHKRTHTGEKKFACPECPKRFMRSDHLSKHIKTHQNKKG
ZFP SBS#1007 (synthetic), sequence (chain, as listed by the source): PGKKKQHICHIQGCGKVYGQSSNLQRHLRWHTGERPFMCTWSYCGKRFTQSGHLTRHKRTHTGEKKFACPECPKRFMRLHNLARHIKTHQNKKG
ZFP SBS#995, sequence (P08047 other isoform, or with tags, fused parts or gaps): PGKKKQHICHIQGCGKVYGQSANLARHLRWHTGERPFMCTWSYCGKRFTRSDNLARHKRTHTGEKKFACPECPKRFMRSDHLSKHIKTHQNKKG
ZFP SBS#1015 (synthetic), sequence (chain, as listed by the source): as the sequence (P08047 other isoform, or with tags, fused parts or gaps) above, with Q20R, A22D, A25V, H81T, S83K counted along it

B1: GAGATGGAG (dsDNA)
DNA 1: GAGATGGAG
DNA 2: CTCCATCTC
As for B1, the dissociation constant (Kd) with ZFP SBS#1009 was 1.9 nM; in the data set with ZFP SBS#1008, 0.4 nM.

B2: GACGTAGGG (dsDNA)
DNA 1: GACGTAGGG
DNA 2: CCCTACGTC
On to B2, for which the Kd in the data set with ZFP SBS#1014 was 0.01 nM; in the data set with ZFP SBS#1012, 0.032 nM.

B3: GTAGTAGAA (dsDNA)
DNA 1: GTAGTAGAA
DNA 2: TTCTACTAC
Molecule B3 showed a Kd with ZFP SBS#1018 of 7.2 nM.

B4: GTAGGGGCG (dsDNA)
DNA 1: GTAGGGGCG
DNA 2: CGCCCCTAC
On to B4, for which the affinity in the data set with ZFP SBS#1006, expressed as Kd, was 0.898 nM.

B5: GAGGGGGCG (dsDNA)
DNA 1: GAGGGGGCG
DNA 2: CGCCCCCTC
In the case of B5, the values for the Kd in the data set with ZFP SBS#368 and with ZFP SBS#438 were 3.5 nM and 62.5 nM, respectively.

B6: CTGGATGAC (dsDNA)
DNA 1: CTGGATGAC
DNA 2: GTCATCCAG
B6: the Kd in the data set with ZFP SBS#1017 came to 0.233 nM.

B7: TTGGTGGCG (dsDNA)
DNA 1: TTGGTGGCG
DNA 2: CGCCACCAA
In the data set with ZFP SBS#1011, B7 showed an equilibrium dissociation constant (Kd) of 0.03 nM.

B8: CAGGCGGCG (dsDNA)
DNA 1: CAGGCGGCG
DNA 2: CGCCGCCTG
B8 came in with a Kd with ZFP SBS#981 of 0.375 nM.

B9: GACGGCGAG (dsDNA)
DNA 1: GACGGCGAG
DNA 2: CTCGCCGTC
For B9, the figures for the Kd with ZFP SBS#985 and with ZFP SBS#984 were 0.965 nM and 1.6 nM, respectively.

B10: GGGGGCTGG (dsDNA)
DNA 1: GGGGGCTGG
DNA 2: CCAGCCCCC
Consider B10, for which the figures for the dissociation constant Kd with ZFP SBS#994, in the data set with ZFP SBS#940 and with ZFP SBS#939 were 0.03 nM, 1.5 nM and 0.352 nM, respectively.

B11: AGGGAGGAG (dsDNA)
DNA 1: AGGGAGGAG
DNA 2: CTCCTCCCT
In the data set with ZFP SBS#1019, B11 showed a Kd of 0.022 nM.

B12: GGTGAGGGG (dsDNA)
DNA 1: GGTGAGGGG
DNA 2: CCCCTCACC
As to B12, the Kd with ZFP SBS#989 is 1.9 nM. This lies in the single-digit nanomolar range.

B13: AAGGTGGGC (dsDNA)
DNA 1: AAGGTGGGC
DNA 2: GCCCACCTT
On to B13, for which the dissociation constant (Kd) with ZFP SBS#990 came to 5.35 nM; with ZFP SBS#991, 0.06 nM.

B14: GGAGCTGAC (dsDNA)
DNA 1: GGAGCTGAC
DNA 2: GTCAGCTCC
B14 came in with a Kd in the data set with ZFP SBS#1001 of 1.8 nM.

B15: GAGAGAGAT (dsDNA)
DNA 1: GAGAGAGAT
DNA 2: ATCTCTCTC
B15: the dissociation constant Kd was 167 nM with ZFP SBS#1007, 8.2 nM in the data set with ZFP SBS#1010 and 0.15 nM in the data set with ZFP SBS#1013.

B16: CCGGGCTGG (dsDNA)
DNA 1: CCGGGCTGG
DNA 2: CCAGCCCGG
With B16, the dissociation constant (Kd) came out at 1.39 nM with ZFP SBS#983 and 0.03 nM with ZFP SBS#982.

B17: GGGGAGGAA (dsDNA)
DNA 1: GGGGAGGAA
DNA 2: TTCCTCCCC
Take B17: the Kd in the data set with ZFP SBS#995 and with ZFP SBS#1024 was 0.08 nM throughout.

B18: GAGGAGGTG (dsDNA)
DNA 1: GAGGAGGTG
DNA 2: CACCTCCTC
Turning to B18, the Kd in the data set with ZFP SBS#1022 turned out to be 0.01 nM; with ZFP SBS#1025, 0.115 nM.

B19: GCGGAGGAG (dsDNA)
DNA 1: GCGGAGGAG
DNA 2: CTCCTCCGC
On to B19, for which the values for the Kd with ZFP SBS#1015 and with ZFP SBS#1002 were 0.008 nM and 0.028 nM, respectively.

B20: AGAGAGGCT (dsDNA)
DNA 1: AGAGAGGCT
DNA 2: AGCCTCTCT
B20: the values for the Kd with ZFP SBS#997 and with ZFP SBS#999 were 1.65 nM and 0.6 nM, respectively.

B21: CAGTTGGTC (dsDNA)
DNA 1: CAGTTGGTC
DNA 2: GACCAACTG
B21: the results for the Kd in the data set with ZFP SBS#1016, in the data set with ZFP SBS#1000 and with ZFP SBS#996 were 0.09 nM, 11.2 nM and 9.6 nM, respectively.
